# Results reported in publication doi:10.1101/2021.01.30.428974.
# Tests used:
# [1] = target: Murine polyomavirus VP1 with the putative nuclear localisation signal deleted (Murine polyomavirus) (UniProt P03090); test: co-sedimentation
# [2] = target: wild-type Murine polyomavirus VP1 (Murine polyomavirus) (UniProt P03090); test: co-sedimentation
substance,measurement,setting,value
VP2C-GFP,stoichiometry N (GFP per ΔVP1 VLP),[1],72
same,stoichiometry N (GFP per wtVP1 VLP),[2],59
